From US20140044738A1 (AstraZeneca / MedImmune, published 2014)
Values belong to the molecule of their own block, whether it stands above or below them.

Columns and labels:
[1] = biological target: human PD-1, full length, expressed on the cell surface (human) (UniProt Q15116); test: flow cytometry: human primary CD8 T cells, CD45RA med; PD-1 as the cells express it
[2] = biological target: human PD-1, full length, expressed on the cell surface (human) (UniProt Q15116); test: flow cytometry: human primary CD4 T cells, CD45RA high; PD-1 as the cells express it
[3] = biological target: human PD-1, full length, expressed on the cell surface (human) (UniProt Q15116); test: flow cytometry: human primary CD4 T cells, CD45RA low; PD-1 as the cells express it
[4] = biological target: human PD-1, full length, expressed on the cell surface (human) (UniProt Q15116); test: flow cytometry: human primary CD8 T cells, CD45RA low; PD-1 as the cells express it
[5] = biological target: human PD-1, full length, expressed on the cell surface (human) (UniProt Q15116); test: flow cytometry: human primary CD4 T cells, CD45RA med; PD-1 as the cells express it
[6] = biological target: human PD-1, full length, expressed on the cell surface (human) (UniProt Q15116); test: flow cytometry: human primary CD8 T cells, CD45RA high; PD-1 as the cells express it
[7] = biological target: human PD-1, full length, expressed on the cell surface (human) (UniProt Q15116); test: flow cytometry: CHO cells with full-length human PD-1 pre-incubated with Ctl Ig, then hB7-DC mIg + a-mIg-APC; a-mIg-APC alone MFI=10
[8] = biological target: T1, human PD-1, full length, expressed on the cell surface (human, UniProt Q15116 25-288); test: cell-based competition: CHO-hPD1 cells, antibody 30 min, then 10 µg/ml APC-labeled B7-DC-Fc; axis 100 to 0 without a unit (text: 0-0.1 mg/ml)
T1 construct: whole, on cells; also called CHO-hPD-1; CHO-hPD1
Protocol: A cell-based competition assay was performed by incubating 50,000 CHO-hPD1 cells for 30 minutes with anti-PD-1 antibody (present at concentrations ranging from 0-0.1 mg/ml). […] The competition was repeated at a fixed antibody concentration of 20 μg/mL (FIG. 11).

human PD-1-Fc [9] = biological target: T2, human PD-1-Fc (human, UniProt Q15116 25-167, limits assumed, biotinylated in the B7-DC blocking ELISA); test: ELISA: hybridoma supernatant on immobilised rhPD-1/Fc, anti-mouse IgG
T2 construct: also called hPD-1-Fc; biotinylated PD-1-Fc
Protocol: Splenocytes from anti-PD-1 positive animals were fused with myeloma cells following standard protocol. The resulting murine hybridomas were screened for those that express high affinity human PD-1-immunoreactive monoclonal antibodies. Antibodies were additionally evaluated to determine whether they were IgG or IgM antibodies. […] Hybridoma supernatants were then placed in contact with the support, and the presence of anti-PD-1 antibody was determined using labeled anti-mouse IgG or anti-mouse IgM.

[10] = biological target: T3, human PD-1 (form in the assay not stated) (human, UniProt Q15116 25-167, limits assumed); test: method not stated
T3 construct: Used for the kinetic constants and EC50 values whose assay format is not described

[11] = biological target: T3, human PD-1 (form in the assay not …); test: PD-1-specific binding at 0 to approximately 350 nM antibody (FIG. 20); format not stated
human PD-1-Fc [12] = biological target: T2, human PD-1-Fc; test: blocking, flow cytometry, by paragraph 273: the construct binds hPD-1-Fc and blocks its binding to hB7-H1 expressed by CHO cells (the legend paragraph 64 calls it a binding curve on CHO.hPD-1 cells; the curve falls); set-up: unit not given here
[13] = biological target: T1, human PD-1, full length, expressed on …; test: cell-based or functional assay
[14] = biological target: T4, human B7-H1, full length, expressed on the cell surface (human, UniProt Q9NZQ7 19-290); test: flow cytometry on CHO cells expressing human B7-H1, median fluorescence intensity
T4 construct: whole, on cells; also called CHO-hB7-H1; CHO-B7-H1 cells
T4 sequence (Q9NZQ7 19-290): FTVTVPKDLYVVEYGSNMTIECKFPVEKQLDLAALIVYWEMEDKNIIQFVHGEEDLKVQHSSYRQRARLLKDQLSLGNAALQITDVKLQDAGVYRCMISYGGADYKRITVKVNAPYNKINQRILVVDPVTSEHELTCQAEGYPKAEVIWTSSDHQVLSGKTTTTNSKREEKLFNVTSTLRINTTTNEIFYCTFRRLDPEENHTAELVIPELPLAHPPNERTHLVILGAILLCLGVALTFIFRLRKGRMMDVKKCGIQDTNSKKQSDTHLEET

Sequence of human PD-1, full length, expressed on the cell surface (human) (Q15116 25-288): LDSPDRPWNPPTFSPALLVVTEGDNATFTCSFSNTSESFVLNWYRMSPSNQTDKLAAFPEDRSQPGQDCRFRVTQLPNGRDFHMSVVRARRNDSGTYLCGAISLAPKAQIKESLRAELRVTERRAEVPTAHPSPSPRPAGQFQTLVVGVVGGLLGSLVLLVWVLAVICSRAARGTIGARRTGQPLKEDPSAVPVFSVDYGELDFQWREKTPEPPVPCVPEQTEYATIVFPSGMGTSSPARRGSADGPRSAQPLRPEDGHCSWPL
T3 sequence (Q15116 25-167 limits assumed): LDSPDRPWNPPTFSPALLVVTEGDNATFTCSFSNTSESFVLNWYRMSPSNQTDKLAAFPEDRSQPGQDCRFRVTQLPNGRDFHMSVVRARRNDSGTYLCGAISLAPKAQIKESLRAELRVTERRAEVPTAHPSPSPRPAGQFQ
T1 sequence (Q15116 25-288): as the sequence (Q15116 25-288) above
T2 sequence (Q15116 25-167 limits assumed): as the sequence (Q15116 25-167 limits assumed) above

number over the gate of positive cells [1]: 1.6 | number over the gate of positive cells [2]: 1.4 | number over the gate of positive cells [3]: 2.1 | number over the gate of positive cells [4]: 1.6 | number over the gate of positive cells [5]: 1.1 | number over the gate of positive cells [6]: 1.5
Molecule: SYNAGIS (antibody)

MFI [7]: 2930
B1: B7-DC-Fc (Fc fusion, part only; not given: Fc part, human, UniProt Q9BQ51 20-220, looked up, part only)
chain, part: LFTVTVPKELYIIEHGSNVTLECNFDTGSHVNLGAITASLQKVENDTSPHRERATLLEEQLPLGKASFHIPQVQVRDEGQYQCIIIYGVAWDYKYLTLKVKASYRKINTHILKVPETDEVELTCQATGYPLAEVSWPNVSVPANTSHSRTPEGLYQVTSVLRLKPPPGRNFSCVFWNTHVRELTLASIDLQSQMEPRTHPT
modifications: APC-labeled or biotinylated in the cell-based assays

binding result [8]: binds | binding result (human PD-1-Fc [9]): binds
B2: Anti-Human PD-1 Clone 1E3 (antibody, IgG1, V domains shown)
VH: EVQLQQSGPVLVKPGASVKMSCKASGYTFTDYYMNWVKQSHGKSLEWIGNINPYNGGTTYNQKFKGKATLTVDKSSRTAYMEINSLTSEDSAVYYCARGRIYDGSLDYWGQGTALTVSS
VL: DIQMTQFPSSLCASQGGKVTVTCKASQDINNYMAWYQHKPGKGPRLLIHYTSTLLSGIPSRFSGSGSGRDYSFSISNLEPEDIATYYCLQYDNLWTFGGGTKLEIK
notes: Murine hybridoma antibody, IgG1/kappa

Kd [10]: 2.19 nM | koff [10]: 0.000161 s⁻¹ | kon [10]: 73400 M⁻¹ s⁻¹ | EC50 [11]: 3 nM | IC50 (read off the curve) (human PD-1-Fc [12]): ~100 | T cell proliferation [13]: ~7 fold
B3: 1H3 Construct (chimeric murine anti-human PD-1 Fab regions of antibody 1H3 and a human IgG1 Fc region) (antibody, V domains shown)
VH: EVQLVESGGGLVKPGGSLKLSCAASGFTFSDYGMHWVRQAPEKGLEWVAYISSGSYTIYYTDTVKGRFTISRDNAKNTLFLQMTSLRSEDTAMYYCARRGYGSFYEYYFDYWGQGTTLTVSS
VL: QIVLTQSPALMSASPGEKVTMTCSASSSVSYMYWYQQKPRSSPKPWIYLTSNLASGVPARFSGSGSGTSYSLTISSMEAEDAATYYCQQWSSNPFTFGSGTKLEIK
notes: also called 1H3 anti-human PD-1 chimeric antibody; chimeric 1H3

EC50 [11]: 3 nM
B4: h1H3 Var 2 (antibody, V domains shown)
VH: EVQLVESGGGLVQPGGSLRLSCAASGFTFSDYGMHWVRQAPGKGLEWVAYISSGSYTIYYADSVKGRFTISRDNAKNTLYLQMSSLRAEDTAVYYCARRGYGSFYEYYFDYWGQGTTVTVSS
VL: EIVLTQSPATLSLSPGERATLSCRASSSVSYMYWYQQKPGQAPRLLIYLASNRATGIPARFSGSGSGTDYTLTISSLEPEDFAVYYCQQWSSNPFTFGQGTKLEIK
notes: Humanized variable domains LC1_1 / HC1_2

EC50 [11]: 3 nM
B5: h1H3 Var 3 (antibody, V domains shown)
VH: EVQLVESGGGLVQPGGSLRLSCAASGFTFSDYGMHWVRQAPGKGLEWVAYISSGSYTIYSADSVKGRFTISRDNAKNTLYLQMSSLRAEDTAVYYCARRGYGSFYEYYFDYWGQGTTVTVSS
VL: EIVLTQSPATLSLSPGERATLSCRASSSVSYMYWYQQKPGQAPRLLIYLASNRATGIPARFSGSGSGTDYTLTISSLEPEDFAVYYCQQWSSNPFTFGQGTKLEIK
notes: Humanized variable domains LC1_1 / HC1_3

EC50 [11]: 6 nM
B6: h1H3 Var 4 (antibody, V domains shown)
VH: EVQLVESGGGLVQPGGSLRLSCAASGFTFSDYGMHWVRQAPGKGLEWVSYISSGSSTIYYADSVKGRFTISRDNAKNTLYLQMSSLRAEDTAVYYCARRGYGSFYEYYFDYWGQGTTVTVSS
VL: QIVLTQSPATLSLSPGERATLSCSASSSVSYMYWYQQKPGQAPRLLIYLTSNRATGIPARFSGSGSGTDYTLTISSLEPEDFAVYYCQQWSSNPFTFGQGTKLEIK
notes: Humanized variable domains LC1_2 / HC1_1

EC50 [11]: 6 nM
B7: h1H3 Var 1 (antibody, V domains shown)
VH: EVQLVESGGGLVQPGGSLRLSCAASGFTFSDYGMHWVRQAPGKGLEWVSYISSGSSTIYYADSVKGRFTISRDNAKNTLYLQMSSLRAEDTAVYYCARRGYGSFYEYYFDYWGQGTTVTVSS
VL: EIVLTQSPATLSLSPGERATLSCRASSSVSYMYWYQQKPGQAPRLLIYLASNRATGIPARFSGSGSGTDYTLTISSLEPEDFAVYYCQQWSSNPFTFGQGTKLEIK
notes: Humanized variable domains LC1_1 / HC1_1

EC50 [11]: 3 nM
B8: h1H3 Var 6 (antibody, V domains shown)
VH: EVQLVESGGGLVQPGGSLRLSCAASGFTFSDYGMHWVRQAPGKGLEWVAYISSGSYTIYSADSVKGRFTISRDNAKNTLYLQMSSLRAEDTAVYYCARRGYGSFYEYYFDYWGQGTTVTVSS
VL: QIVLTQSPATLSLSPGERATLSCSASSSVSYMYWYQQKPGQAPRLLIYLTSNRATGIPARFSGSGSGTDYTLTISSLEPEDFAVYYCQQWSSNPFTFGQGTKLEIK
notes: Humanized variable domains LC1_2 / HC1_3

EC50 [11]: 3 nM
B9: h1H3 Var 5 (antibody, V domains shown)
VH: EVQLVESGGGLVQPGGSLRLSCAASGFTFSDYGMHWVRQAPGKGLEWVAYISSGSYTIYYADSVKGRFTISRDNAKNTLYLQMSSLRAEDTAVYYCARRGYGSFYEYYFDYWGQGTTVTVSS
VL: QIVLTQSPATLSLSPGERATLSCSASSSVSYMYWYQQKPGQAPRLLIYLTSNRATGIPARFSGSGSGTDYTLTISSLEPEDFAVYYCQQWSSNPFTFGQGTKLEIK
notes: Humanized variable domains LC1_2 / HC1_2

MFI [14]: 59600
B10: Anti-Human B7-H1 Clone 3B6 (antibody, V domains shown)
VL: DIVMTQSPAIMSASPGEKVTMTCSASSSIRYMHWYQQKPGTSPKRWISDTSKLTSGVPARFSGSGSGTSYALTISSMEAEDAATYYCHQRSSYPWTFGGGTKLEIK
V domain: EVKLQESGPSLVKPGASVKLSCKASGYTFTSYDINWVKQRPGQGLEWIGWIFPRDNNTKYNENFKGKATLTVDTSSTTAYMELHSLTSEDSAVYFCTKENWVGDFDYWGQGTTLTLSS
notes: Murine hybridoma IgG

MFI [14]: 53100
B11: Anti-Human B7-H1 Clone 3D10 (antibody, V domains shown)
VH: EVQLQQSGPDLVTPGASVRISCQASGYTFPDYYMNWVKQSHGKSLEWIGDIDPNYGGTTYNQKFKGKAILTVDRSSSTAYMELRSLTSEDSAVYYCARGALTDWGQGTSLTVSS
VL: QIVLSQSPAILSASPGEKVTMTCRASSSVSYIYWFQQKPGSSPKPWIYATFNLASGVPARFSGSGSGTSYSLTISRVETEDAATYYCQQWSNNPLTFGAGTKLELK
notes: Murine hybridoma IgG

MFI [14]: 56200
B12: Anti-Human B7-H1 Clone 1E12 (antibody, V domains shown)
VH: EVKLQESGPSLVKPSQTLSLTCSVTGYSITSDYWNWIRKFPGNKLEYVGYISYTGSTYYNPSLKSRISITRDTSKNQYYLQLNSVTSEDTATYYCARYGGWLSPFDYWGQGTTLTVSS
VL: DIVMTQSHKLMSTSVGDRVSITCKASQDVGTAVAWYQQKPGQSPKLLIYWASTRHTGVPDRFTGSGSGTDFTLTISNVQSEDLADYFCQQDSSYPLTFGAGTKVELK
notes: Murine hybridoma IgG

MFI [14]: 62000
B13: Anti-Human B7-H1 Clone 1F4 (antibody, V domains shown)
VH: EVQLQESGPGLVAPSQSLSITCTVSGFSLTTYSINWIRQPPGKGLEWLGVMWAGGGTNSNSVLKSRLIISKDNSKSQVFLKMNSLQTDDTARYYCARYYGNSPYYAIDYWGQGTSVTVSS
VL: DIVTTQSHKLMSTSVGDRVSITCKASQDVGTAVAWYQQKPGQSPKLLIYWASTRHTGVPDRFTGSGSGTDFTLTISNVQSEDLADYFCQQDSSYPLTFGAGTKVELK
notes: Murine hybridoma IgG
